Measurements taken from the supplement of paper PMC9170038.

Tested on: MS2 coat protein
Assay: apparent KD of MS2 coat protein; designed switch direction (-1 OFF switch, 1 ON switch): 1; higher = weaker reporter binding
Method in brief: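 SNAP-549-labelled MS2 coat protein was titrated, doubling from 0.7 or 1.5 nM to 3 µM, over designed RNA switches transcribed on Illumina chips by stalled E. coli RNA polymerase. Runs were done without input, with 200 uM small-molecule ligand, or with an oligonucleotide input. Apparent KD is the per-design median over clusters of curve-fitted normalised fluorescence.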

[1] = input ligand: microRNA oligo, concentration not stated
[2] = Eterna round: R95, input ligand: FMN 200 uM
[3] = Eterna round: R95, input ligand: microRNA oligo, concentration not stated
[4] = Eterna round: R95, input ligand: none

| Sequence | apparent KD of MS2 coat protein (input ligand: FMN 200 uM) | apparent KD of MS2 coat protein [1] | apparent KD of MS2 coat protein (input ligand: none) | apparent KD of MS2 coat protein [2] | apparent KD of MS2 coat protein [3] | apparent KD of MS2 coat protein [4] |
| --- | --- | --- | --- | --- | --- | --- |
| UGCCGGAUACCGACUACAUGAGGAUCACCCAUGUUAUCUCGUUAGGAUAUACUAACAACAGAUUAGUAGAAGGGACGCGGGCUU [Eternabot solution 23] (Eterna round: R96, puzzle: Same State NG 3) | 25.5 nM | 24.6 nM | 30.7 nM | – | – | – |
| CCGGAUAAUGGAGGAUAUGGAGCCUUAUUGGCUCCAGAAGGCUAACAUGAGGAUCACCCAUGUAAUCCGGCGGUCAAUAGACCG [Eli NG1ss - 65] (Eterna round: R96, puzzle: Same State NG 1) | 12 nM | 15 nM | 25.5 nM | – | – | – |
| UUUAGUUGCGGGCAGGAUAUGUAUUAAUAUACAUGAGGAUCACCCAUGUGAGAUCGAAUAGAUCUACAGAAGGGCCAAUCGCGAC [Laonerce - 25] (puzzle: Same State 2) | – | – | – | 19.8 nM | 133 nM | 188 nM |
| GAGAAGAGGGACAAGGAUAUGUCAGGAGAGACAUGAGGAUCACCCAUGUAGAGGUUGGAGGAGAGACAGAAGGUGUCGGGAGCGA [JR_SS2_Sub013] (puzzle: Same State 2) | – | – | – | 86.8 nM | 73.7 nM | 109 nM |
| GGCUAUCGCAUUCGAUAGCCUGAGCAUGUACAUGAGGAUCACCCAUGUCAUGUACAGGCUUUUUGCUCGUACUUAUA (puzzle: Sensor for hsa-mir-208a) | – | – | – | 71 nM | 13.6 nM | 93.4 nM |
| CGUUGGACAUCCAGCAAGACAUGAGGAUCACCCAUGUAGGCGCAGGAUAUGCGGGUUCGGUGCUCGCAGAAGGGUGAAGAAAAC [Araerar] (Eterna round: R96, puzzle: Same State NG 3) | 35.5 nM | 21.3 nM | 30.4 nM | – | – | – |
| GGAGCCAAGGCAGGAUAUUCAUAUUAAAUAACAUGAGGAUCACCCAUGUAGGCCAGAAGGCCUUGGGAGAAGGGCCAUGGCUCG [Xeonanis - 13 mod21] (Eterna round: R96, puzzle: Same State NG 2) | 21.1 nM | 109 nM | 189 nM | – | – | – |
| GUAAAACAUGAGGAUCACCCAUGUAAUAAUAUGGGAGGAUAUCAGAAUGUAUGUAUGUAAUGAGAAGGCCUAAAUU [Mat - Same State 1 - Mod of Eli - D75] (puzzle: Same State 1) | – | – | – | 73.4 nM | 610 nM | 695 nM |
| AUAAAACAUGAGGAUCACCCAUGUCAACAAAGUCGAGGAUAUGGGCAAAUAAAAUAAGAACUAGAAGGCGAAUAAU [salish99_ss1_r3_031] (puzzle: Same State 1) | – | – | – | 374 nM | 1770 nM | 139 nM |
| CCGGUUUAUGGAGGAUAUGGAGCCUUAUUGGCUCCAGAAGGCUAAUACAUGAGGAUCACCCAUGUUCCGGCGGUCAAUAGACCG [Eli NG1ss - 58] (Eterna round: R96, puzzle: Same State NG 1) | 23.9 nM | 77.8 nM | 126 nM | – | – | – |
| AGGUGGUGUGGAAAGGAUAUACUGUUGAGGACAUGAGGAUCACCCAUGUGGUAGAGGACGUAAGGGUAGAAGGUUCGGGAUUGGU [JR_SS@_Sub021] (puzzle: Same State 2) | – | – | – | 46.2 nM | 50.2 nM | 75.4 nM |
| AAACAUGAGCGAGGAUAUGCGGAGGAUCACCCUGUAGAAGGCGCAUGUAAAACAACAUGAGGAUCACCCAUGUCAUGUACAUAA (Eterna round: R96, puzzle: Same State NG 1) | 77.5 nM | 144 nM | 223 nM | – | – | – |
| AACAAUCUAUCUUAGGAUAUCAUGAAAUAAACAUGAGGAUCACCCAUGUGCAGGAAAACUGCAUAUGAGAAGGCAGAUAGAUUGA [salish99_ss2_r3_026] (puzzle: Same State 2) | – | – | – | 593 nM | 36.2 nM | 42.2 nM |
| UUUAGCGUUACAGGAUAUGGUGAGGAUUACCCACUAGAAGGGUAAACAUGUGCGUCGUACAUGAGGAUCACCCAUGUAGGGCGU (Eterna round: R96, puzzle: Same State NG 1) | 20.6 nM | 15.5 nM | 20.6 nM | – | – | – |
| AGGAUGAGAACAGGAUAUUCGACAUGAGGAUCACCCAUGUGGCAAGUAGGUGACGAUGAAUGACGGAAGAAGGGUUACGAGGAG [Same State NG2] (Eterna round: R96, puzzle: Same State NG 2) | 375 nM | 197 nM | 199 nM | – | – | – |
| AACAAUCUAUCUGAGGAUAUCAUGAAAUAAACAUGAGGAUCACCCAUGUGUAGGAAAACUGCAUAUGAGAAGGCAGAUAGAUUGA [salish99_ss2_r3_036] (puzzle: Same State 2) | – | – | – | 31.9 nM | 299 nM | 1330 nM |
| AUUUUAGUCAGAGGAUAUUGUUUAUCUCUAUUACAAGAAGGCUGAUCUUACUACCCACUUAUGAAACAUGAGGAUCACCCAUGU [JR_SSNG1_Sub016] (Eterna round: R96, puzzle: Same State NG 1) | 17.4 nM | 20.6 nM | 25.8 nM | – | – | – |
| GUUACAUGAGGAUCACCCAUGUAUGUGUGGGAGUAAGUGUCUUAGGAUAUCUAUUAUUAAAAUUAAGAGAAGGAAGAUUGUUGU [JMF's solution 18] (Eterna round: R96, puzzle: Same State NG 3) | 115 nM | 98.1 nM | 103 nM | – | – | – |
| UUACUCAUGUAAGGAUAUGCAGCCGAAACGGCUGCAGAAGGUACUAUAAUACAUGAGGAUCACCCAUGUAAAAUAUAUAAAGUU [Mat - Same State NG 1 - JL mod - D96] (Eterna round: R96, puzzle: Same State NG 1) | 33.9 nM | 33.6 nM | 28.2 nM | – | – | – |
| GUUAAACAUGAGGAUCACCCAUGUCAAUGUAGUCGAGGAUAUGGGCAGCUAUGAGGCGUACUAGAAGGCGAAGAGU [Mat - Same State 1 - Mod of JL - D12] (puzzle: Same State 1) | – | – | – | 106 nM | 196 nM | 280 nM |
| CGUCCGGCCUGAGCUGGUCGGAAGCAUGUACAUGAGGAUCACCCAUGUUCAUGUGCAGGCUUUUUGCUCGUCUUGUG [salish99_mir208a_modof_jandersonlee_004] (puzzle: Sensor for hsa-mir-208a) | – | – | – | 39.8 nM | 13.1 nM | 39.6 nM |
| GCGGACCUCACAUGAGGAUCACCCAUGUUGCGGAGACGCAAUGAGGAUAUCGAUGGGUUUCCCGUCGAGAAGGCAUAAAUCCGC [JL SSNG3 3.93 mod 4] (Eterna round: R96, puzzle: Same State NG 3) | 109 nM | 44.5 nM | 56.6 nM | – | – | – |
| AAGUUAAGCUUUUUGUUCUGCCUAUUCUGACAUGAGGAUCACCCAUGUGGUCGAACGACUACGUGUGUAGUUGAGAU [JR_SHM208A_Sub030] (puzzle: Sensor for hsa-mir-208a) | – | – | – | 174 nM | 252 nM | 278 nM |
